Reference: the DeepSol protein solubility set

test: soluble on expression in E. coli; label from the status in PepcDB or PDB records

Sequence	soluble on expression in E. coli
MFDSIRETIDYAVENNMSFADIMVKEEMELSGKSRDEVRAQMKQNLDVMRDAVIKGTTGDGVESVTGYTGHDAAKLRDYNETHHALSGYEMIDAVKGAIATNEVNAAMGIICATPTAGSSGTIPGALFKLEKTHDLTEEQMIDFLFTSALFGRVVANNASVAGATGGCQAEVGSASAMAAAAAVAIFGGSPEASGHAMALAISNLLGLVCDPVAGLVEIPCVMRNAIGSGNALISADLALAGIESRIPVDEVIEAMDKVGRNLPASLRETGLGGLAGTPTGEAIKRKIFGTAEDMVKNN	not soluble
SEESVKPVPKHANHRRSSVRSSLYGDVRDLWSTATMSTANVSVSDVCEDFDEEGKSVRNRIRKYSQTISIRDSLNLEPEEIQQQARRELELCHGRSLEHGEDHEESETSLASSTSESLIFSLWKPHRTYWTEQQNRLPLPLMELMETEVLDILKKALITYRSTIGRNHFMTKELQGYIEGIRKRRNKRLYFLDQ	soluble
MGSDKIHHHHHHMDLLELKAFVFAVQTGSITQAAFQLGRVQSSVSLRIKQLETELGVELLSRDRGGVRTTARGQILYDYATRILALAQEAKGEVMSPNTGEIVRLGTIETISPDCIDSLVRLLSGFDGMGVDVYVDGALSLVESLREGRIHAAIVGAGFAPPECIRIPLYGEAMVLISSLKYPRIDLVNQIANEIFLVCKKESACSRHLAMLFMEGGFQPARISECGSFSILMSSVVRGMGIALVPLSAVLGSAHEKQVLIHPLSGHFSTFQVEFVCPQPKGRPILERLIEKISQEFVGQKPN	not soluble
MGHHHHHHSHMGHLDKEGLCTQGSSFSWLLRVLNDGISLGLTPCLWDMYLLEGEQMLMLITSIAFKVQRSLYEETNKETWGPATPRALKGTGRARPICESLHSSLQALTASESSRGPSLLQTPPRVPGQQALSRGDKGISVSLSLPSLPSRRGRCGRIIG	not soluble
MTDKTIAFSLLDLAPIPEGSSAREAFSHSLDLARLAEKRGYHRYWLAEHHNMTGIASAATSVLIGYLAANTTTLHLGSGGVMLPNHLPLVIAEQFGTLNTLYPGRIDLGLGRAPGSDQRTMMALRRHMSGDIDNFPRDVAELVDWFDARDPNPHVRPVPGYGEKIPVWLLGSSLYSAQLAAQLGLPFAFASHFAPDMLFQALHLYRSNFKPSARLEKPYAMVCINIIAADSNRDAEFLFTSMQQAFVKLRRGETGQLPPPIQNMDQFWSPSEQYDVQQALSMSLVGDKAKVRHGLQSILRETDADEIMVNGQIFDHQARLHSFELAMDVKEELLG	not soluble
MSLEKVLVIVGPTAVGKTALSIALAKKFNGEIISGDSMQVYRSLDIGTAKVTETEKEGIPHYLIDCREVSETYSAADFQKEGRQKIKEITEKGKLPIIVGGTGLYIQSLLYDFQLGSREIDDSPEIRETYNLFAEEKGNQALWLLLQQKDPLAANSIHFNNRKKVIRALEVFDKTGYSILTPKEKPARLYDYYLLGLETDRALLYERINQRVDQMMTEGLLEEAKQMFQQPHAQAAQGIGYKEFFPYFSGEQSLEMAVETVKQQSRRYAKRQLTWFRNRMAAHWWNLVQQPTDLPKLEKEVAEWLQQKESEEGHHHHHH	soluble
MRMIVGHGIDIEELASIESAVTRHEGFAKRVLTALEMERFTSLKGRRQIEYLAGRWSAKEAFSKAMGTGISKLGFQDLEVLNNERGAPYFSQAPFSGKIWLSISHTDQFVTASVILEENHES	soluble
MVQAFEPYIALNSHVRKPVIHISLNPSPKDILSKEQMTVLAQEFMEKFGYGNQPYIVWLHEDIDRKHMHIISVRINEKGEKIDHNREAIRAQNICRDMEVKYGLHSTLGEHSERELLSLQKVDYPKGDVKAQVKHTARTLLECYNCHSLAEYNTLLNLYNVTVYEVRGSVDGKEYYGIMYGALDDDGQQAGTPFKSSKFGKVFGYEALQKKFAATAEKVLEHHHHHH	not soluble
MLERILSRENLIQALERVEKNKGSYGVDEMDVKSLRLHLHENWTSIRNEIIEGSYFPKPVRRVEIPKPNGGVRKLGIPTVMDRFLQQAIAQILTQLYDPTFSERSFGFRPHRRGHNAVRQAKQWMKEGYRWVVDIDLEKFFDKVNHDRLMRKLSSRIQDPRVLQLIRRYLQTGVMERGLVSPNTEGTPQGGPLSPLLSNIVLDELDNELEKRGLKFVRYADDCNIYVRSKRAGLRIMESVTSFIENRLKLKVNREKSAVDRPWNRKFLGFSFTRGKDPKMRVSKESVKRLKQRIRELTSRRHSMKMSDRLRRLNRYLTGWLGYYQVVDTPSILAQIDAWIRRRLRMIRWKEWKTTSARQKNLVRLGIKKAKAWQWANSRKGYWRVAHSPIMDYALNSEYWKGQGLMSLAERYQTRRWTLEHHHHHH	soluble
MGSDKIHHHHHHMKIGFLGFGKSNRSLLKYLLNHQEAKFFVSEAKTLDGETKKFLEEHSVEYEEGGHTEKLLDCDVVYVSPGIKPDTSMIELLSSRGVKLSTELQFFLDNVDPKKVVGITGTDGKSTATALMYHVLSGRGFKTFLGGNFGTPAVEALEGEYDYYVLEMSSFQLFWSERPYLSNFLVLNISEDHLDWHSSFKEYVDSKLKPAFLQTEGDLFVYNKHIERLRNLEGVRSRKIPFWTDENFATEKELIVRGKKYTLPGNYPYQMRENILAVSVLYMEMFNELESFLELLRDFKPLPHRMEYLGQIDGRHFYNDSKATSTHAVLGALSNFDKVVLIMCGIGKKENYSLFVEKASPKLKHLIMFGEISKELAPFVGKIPHSIVENMEEAFEKAMEVSEKGDVILLSPGGASFDMYENYAKRGEHFREIFKRHGGDEV	not soluble
MARETHDREDLLLEGVNLPERARLLHRASGREWVIGWRTGGGAAFYDGPDRVYQFNADNQLRRVYLDGSKLAAEGGRLCELRRPEPTNPDGSAGDRTQKVKLVWQPIDSAIQRNVLEQWAETRQQLLTALELFRERDLPNVTIASTAPDGSNSSLSTQPSIYSWESVGIDAFEMLDRTSGWLVSITDNPEIAAQPNA	soluble
MASAQPLTALPAIPLPGDAGPVDELAAVIALLQTQPADSTGAATDLAARASALVGAPVTVLDERSGVLAGDPTRVAGQVAAPDGSVALGWGPAADDAERWRPLLTQACVWLSMIRRLDGAPAVEPESVAVREVVQQLLSVRDVDQVLTSIAERTLRLLDADICGVMLREGERVCMRACVGNRVAQTARLRMRRGQGLAGLVFDIGRPAKVDTYLEDRTISPDFMSLAEQEETRSALAVPLRLHGELIGVLEVWRRRPSTFTEHDEHRMVVLADIATVAIDNARLHDEQAASTVEAERARDELQQQVAMLNGSSRLQQKLLTTVIEGGGLPAVVHAVAIELGCEVGVFGPDGAMIATHTPGSTPASLPARLPVRARPATPGRWVRPVYADGDQVGQVVLIQGEASAELMDAVAGQVAMACSLALLRERAASRARAQAVDQVLWDLLQGPVQHRVAARSRAQQLGISLLGSLRVLHGQIENVEELAAEQGWDTSHTDKVRRGVLRAVRGVDEARRLPLTGMRGDLLVAVAADLDRASVKDLAAATCAAIHAEWPGLRLTWGVSRERANPMELPNALSEAETALAAARRLGGRNALLYEELGIVRLLLGSGNDPDLQTFIEEVTGPLIAYDRDNDGALIRTLRAFFDADCSQRVAAERLFVHHKTLRYRLERIRQLTGLDLSRHEDRMRADFALRLLQVNQTSDAIGD	not soluble
GPGSMGCGDSKVRQGGPSRPPPPRGGPNSASTKVEGRANGPNEETSRVESKGSAPPEPEVNSTPVPTKPLGNGVDNSGAEKTNAPPTGSAPPAQNCSQQIELDDEGNALVLPKGEWVRTEGTPFYYSDAENLYFHPPSCQFYDPTNEMWYDPEQDEWYRDDDPAE	not soluble
MGSDKIHHHHHHMVETLAGLFDFEMDPQSGVALTRQLRDQLRRAIAAGSLASGRRLPSSRALALHLRVSRNTVCAAIEQLAMEGYLDVSRGRRPVVAPMPSAGLVAIGSDRPVSDGRSGMSQWAQRIDRSDWPFISEGRPTPFAPCVADARAFPHAIWGRCLRTATRYAVARTSTACNRPGLRRALLHHLVEYRGVNADAHQVFLMPTAQAAIALVARVLLDPGDLAWVESPGYGGARAAFEAAGATVQGIALDQSGMAFETSTDTPRLIFVTPAHQHPTGLLMPPARRQALLRFAARVGARIIEDDYDSEFHYEGRPVAALQGADDADSVFYVGTFSKSLHADIRVGYVVVPGHFVDVFAKAQRHTGQIVGATLQDALAEFIDDGHYAAHIRKTTRLYHARRDYLCDALKAVGSELTVSPPDGGMQVVARLGPLRDDREICRRLAEAGVTARPLSPHYCAQTGAQGLFLGFAAWNECEIDAGVRILARVIREPEPSK	not soluble
MMGFEWGFKPSSKITQSTVSSQGTGNVMIPTAGVKQKRRYANEEQEEEELPRNKNVMKYGGVSKRRPQPGSLIRGQPLPLQRGMELMNKNQLQQLLVDLMTKHPEIQQSVHTRVIGLDFSIQKCLDMLKQKSEAVYQSIPYNRSYESNKLDDYAFVRMKPQILEFLNCLVDFILDNIPPRLENLHASLKFLDICTELVIKLPRFELASNNYYYDKCIEQLSHVWCTLIEHVARDRIILLADNSSVWKSHMTRLQVYNEHSNGLLERPLQLFKSLDMGSPSAASSSTLSLQESIIYHHDTMTANENNNNSGSAATDSPFN	soluble
GPGSNYTFSMRATLDDPDVQNGITQGDRQQIQDAVNAASSWLEKNREATKEEYMEQTKLIEGIAHPILSEFYKKRVMEAPPSAGPKDGAPSDEVPHAEDVD	soluble
MHCALLYSGGKDSTLAALLLDPFYDVTLVSGSFGVRDTDPAQESATAVGFDHVTVDLDPDVAHDAVKQMFDDGYPRNGIQRVHEHAVETVARADWVADADGLGTLDAVADGTRRDDRVPTVDRPLAQSIEDRFDVDYLAPLAGIGRGAIDAMAADRLVVESGPSAEIPKADYEVELRALLRKRYGEGAVADVFPEHTQSRVQGLR	not soluble
PEGSRDILFEECTIKNNIENILRNSYINVGYEEVRSPTLEFYDVYNLENQPISQEKMYKLFDNTGRILVLRPDMTTPIARICATKLKNRVYPLKLSYTGNIYRMNKALNGKISEITQSGIEILGFSSLKADAEVIITAIKAILKTGLKNFKIEIGQVEFFKSIISDTALKEQDTEKLRNFIENKNFSKVEEFILRNSDLIGETSSKVLMNLPNLFGGKEVIEKAEQLTSNKQAIEALKKVRDLYDIVKRAGFGEYILIDLGMVQHINYYTGLIFRGYAHGIGDDLLSGGRYDKLLGQFGYDIPATGLAINVDNLVAALDDCVRENL	not soluble
MRLLVMVFTSDKKLVEEIKREVERRGFRVRDVQSPDELRRDLEKLLREHNAQFVIIVVTDKEWAKEALKKAKEEGVQIFLILWDTNEDELRKFREEVERKGVDVRTATSPDDVKDIVREFLERVGSHHHHHH	soluble
MHHHSHHHHSHMDVTIQHPWFKRTLGPFYPSRLFDQFFGEGLFEYDLLPFLSSTISPYYRQSLFRTVLDSGISEVRSDRDKFVIFLDVKHFSPEDLTVKVQDDFVEIHGKHNERQDDHGYISREFHRRYRLPSNVDQSALSCSLSADGMLTFCGPKIQTGLDATHAERAIPVSREEKPTSAPSSLEIRLLLEIRLL	soluble
MLSFVKELNFEINQKKYFIKIYLQPRIKYIKIKIINHQIVCLINHLKLINIAEEFIKNNKLKILKIYENDLKKIKYDEQSLDWIILLGIKFTTIKIKNNNFHCQFNFQKQIIYLYDQNQNLTNTKLLYQKILIYLAEIIFPQIIKNAQNITTLTVKKYVFGFYKSQWGVYNKIKHTIGLSYFLVHYDQDIINYVVIHELAHIKYQHHQKSFWDFVLKYCKNAKIYNNQLKFLEHHHHHH	soluble
GSHMASMLPEETILDKLPKDFQERITSSKWKDRVEALEEFWDSVLSQTKKLKSTSQNYSNLLGIYGHIIQKDANIQAVALAAQSVELICDKLKTPGFSKDYVSLVFTPLLDRTKEKKPSVIEAIRKALLTICKYYDPLASSGRNEDMLKDILEHMKHKTPQIRMECTQLFNASMKEEKDGYSTLQRYLKDEVVPIVIQIVNDTQPAIRTIGFESFAILIKIFGMNTFVKTLEHLDNLKRKKIEETVKTL	soluble
